Results as given in patent publication US20130195871A1 (AbbVie / Abbott, published 2013).
Blank lines part the entries; values can stand above or below the binder they belong to.

Tests used:
Recombinant Human IGF1R = target: T1, Recombinant Human IGF1R (human, UniProt P08069 31-932); test: SPR (Biacore), C-terminal VD;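 further: surface plasmon resonance with DVD-Ig proteins captured on an anti-IgG chip and recombinant antigen flowed over in HBS-EP buffer, Langmuir global fit, KD taken as koff/kon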
T1 construct: bought reagent
Method: (§1) The BIACORE assay (Biacore, Inc, Piscataway, N.J.) determined the affinity of antibodies or DVD-Ig proteins with kinetic measurements of on-rate and off-rate constants. Binding of antibodies or DVD-Ig proteins to a target antigen (for example, a purified recombinant target antigen) was determined by surface plasmon resonance-based measurements with a Biacore® 1000 or 3000 instrument (Biacore AB, Uppsala. Sweden) using running HBS-EP (10 mM HEPES [pH 7.4], 150 mM NaCl, 3 mM EDTA, and 0.005% surfactant P20) at 25° C. […] For example, approximately 5000 RU of goat anti-mouse IgG, (Fcγ), fragment specific polyclonal antibody (Pierce Biotechnology Inc, Rockford, Ill.) diluted in 10 mM sodium acetate (pH 4.5) was directly immobilized across a CM5 research grade biosensor chip using a standard amine coupling kit according to manufacturer's instructions and procedures at 25 μg/ml. Unreacted moieties on the biosensor surface were blocked with ethanolamine. Modified carboxymethyl dextran surface in flowcell 2 and 4 was used as a reaction surface. Unmodified carboxymethyl dextran without goat anti-mouse IgG in flow cell 1 and 3 was used as the reference surface. For kinetic analysis, rate equations derived from the 1:1 Langmuir binding model were fitted simultaneously to association and dissociation phases of all eight injections (using global fit analysis) with the use of Biaevaluation 4.0.1 software. Purified antibodies or DVD-Ig proteins were diluted in HEPES-buffered saline for capture across goat anti-mouse IgG specific reaction surfaces. Antibodies or DVD-Ig proteins to be captured as a ligand (25 μg/ml) were injected over reaction matrices at a flow rate of 5 μl/minute. The association and dissociation rate constants, kₒₙ (M⁻¹s⁻¹) and koff (s⁻¹) were determined under a continuous flow rate of 25 μl/minute. Rate constants were derived by making kinetic binding measurements at different antigen concentrations ranging from 10-200 nM. The equilibrium dissociation constant (M) of the reaction between antibodies or DVD-Ig proteins and the target antigen was then calculated from the kinetic rate constants by the following formula: KD=koff/kₒₙ. Binding was recorded as a function of time and kinetic rate constants were calculated.

[1] = target: T2, Recombinant Human MSP Receptor ECD-His tag (human, UniProt Q04912 25-957); test: SPR (Biacore), N-terminal VD;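 further: capture of antibodies or DVD-Ig proteins on an anti-mouse IgG chip surface, recombinant antigen injected at 10–200 nM in HBS-EP running buffer at 25 °C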
T2 construct: extracellular domain; bought reagent; also called RON
Method: as §1

EGFR on the cell surface [2] = target: T3, EGFR on the cell surface (human, UniProt P00533 25-1210); test: flow cytometry on cells, 2 ug/mL, C-terminal VD;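 further: cells stained for 30 to 60 min on ice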
T3 construct: whole, on cells
Method: (§2) Stable cell lines overexpressing a cell-surface antigen of interest or human tumor cell lines were harvested from tissue culture flasks and resuspended in phosphate buffered saline (PBS) containing 5% fetal bovine serum (PBS/FBS). Prior to staining, human tumor cells were incubated on ice with (100 μl) human IgG at 5 μg/ml in PBS/FCS. 1-5×10⁵ cells were incubated with antibody or DVD-Ig (2 μg/mL) in PBS/FBS for 30-60 minutes on ice. […] After 30 minutes incubation on ice, cells were washed twice and resuspended in PBS/FBS. Fluorescence was measured using a Becton Dickinson FACSCalibur (Becton Dickinson, San Jose, Calif.).
(§3) The geometric mean is the n root of the multiplication product of n fluorescent signals (a1×a2×a3 . . . an). With log-transformed data the geometric mean is used to normalize the weighting of the data distribution.

EGFR on the cell surface [3] = target: T3, EGFR on the cell surface; test: flow cytometry on cells, 2 ug/mL, N-terminal VD;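 further: cells stained for 30 to 60 min on ice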
Method: as §2, §3

binding result (Recombinant Human IGF1R): no binding (tested: 10-200 nM)
Kd [1]: 21 nM
koff [1]: 0.00093 s⁻¹
kon [1]: 44000 M⁻¹ s⁻¹
B2: DVD2324 (bispecific antibody)
VH: EVQLVQSGGGLVKPGGSLRLSCAASGFTFSSYAMHWVRQAPGKGLEWVAVISYDGSNKYYADSVKGRFTISRDNSKNTLYLQMNSLRAEDTAVYYCARFSGWPNNYYYYGMDVWGQGTTVTVSSASTKGPEVQLVQSGGGLVKPGGSLRLSCAASGFTFSSFAMHWVRQAPGKGLEWISVIDTRGATYYADSVKGRFTISRDNAKNSLYLQMNSLRAEDTAVYYCARLGNFYYGMDVWGQGTTVTVSS
VL: DVVMTQSPLSLPVTPGEPASISCRSSQSLLHSNGFNYVDWYLQKPGQSPHLLIYFGSYRASGVPDRFSGSGSGTDFTLKISRVEAEDVGVYYCMQALQTPPWTFGQGTKVEIRRTVAAPEIVLTQSPGTLSVSPGERATLSCRASQSIGSSLHWYQQKPGQAPRLLIKYASQSLSGIPDRFSGSGSGTDFTLTISRLEPEDFAVYYCHQSSRLPHTFGQGTKVEIK
notes: DVD-Ig, outer AB005 / inner AB077

GEO MEAN (EGFR on the cell surface [3]): 448
GEO MEAN (EGFR on the cell surface [2]): 448
B5: DVD2290 (bispecific antibody)
VH: EVQLVESGGGLVQPGGSLRLSCAASGFSLTNYGVHWVRQAPGKGLEWLGVGWSGGNTDYNTPFTSRLTINKDNSKNTVYLQMNSLRAEDTAVYYCARALTWYDYEFAYWGQGTLVTVSSASTKGPQVQLQESGPGLVKPSETLSLTCTVSGGSVSSGDYYWTWIRQSPGKGLEWIGHIYYSGNTNYNPSLKSRLTISIDTSKTQFSLKLSSVTAADTAIYYCVRDRVTGAFDIWGQGTMVTVSS
VL: DILLTQSPGTLSLSPGERATLSCRASQSIYTNIHWYQQKPGQAPRLLIKYASESISGIPDRFSGSGSGTDFTLTISRLEPEDFAVYYCQQNLNWPTTFGQGTKLEIKRTVAAPDIQMTQSPSSLSASVGDRVTITCQASQDISNYLNWYQQKPGKAPKLLIYDASNLETGVPSRFSGSGSGTDFTFTISSLQPEDIATYFCQHFDHLPLAFGGGTKVEIK

GEO MEAN (EGFR on the cell surface [2]): 9.84
B10: DVD2347 (bispecific antibody)
VH: EVQLVQSGGGLVKPGGSLRLSCAASGFTFSSFAMHWVRQAPGKGLEWISVIDTRGATYYADSVKGRFTISRDNAKNSLYLQMNSLRAEDTAVYYCARLGNFYYGMDVWGQGTTVTVSSASTKGPQVQLQESGPGLVKPSQTLSLTCTVSGYSISSDFAWNWIRQPPGKGLEWMGYISYSGNTRYQPSLKSRITISRDTSKNQFFLKLNSVTAADTATYYCVTAGRGFPYWGQGTLVTVSS
VL: EIVLTQSPGTLSVSPGERATLSCRASQSIGSSLHWYQQKPGQAPRLLIKYASQSLSGIPDRFSGSGSGTDFTLTISRLEPEDFAVYYCHQSSRLPHTFGQGTKVEIKRTVAAPDIQMTQSPSSMSVSVGDRVTITCHSSQDINSNIGWLQQKPGKSFKGLIYHGTNLDDGVPSRFSGSGSGTDYTLTISSLQPEDFATYYCVQYAQFPWTFGGGTKLEIK

The next lines start with the binder.

B1: DVD2279 (bispecific antibody)
VH: EVQLVESGGGLVQPGGSLRLSCAASGFTFSIYSMNWVRQAPGKGLEWVSYISSSSSTIYYADSVKGRFTISRDNAKNSLYLQMNSLRDEDTAVYYCARDRGDFDAFDIWGQGTMVTVSSASTKGPEVQLVQSGAEVKKPGSSVKVSCKASGGTFSSYAISWVRQAPGQGLEWMGGIIPIFGTANYAQKFQGRVTITADKSTSTAYMELSSLRSEDTAVYYCARAPLRFLEWSTQDHYYYYYMDVWGKGTTVTVSS
VL: DIQMTQSPSSLSASVGDRVTITCQASQDITNYLNWYQQKPGKAPKLLIYDASNLETGVPSRFSGSGSGTDFTFTISSLQPEDIATYNCQQCENFPITFGQGTRLEIKRTVAAPSSELTQDPAVSVALGQTVRITCQGDSLRSYYATWYQQKPGQAPILVIYGENKRPSGIPDRFSGSSSGNTASLTITGAQAEDEADYYCKSRDGSGQHLVFGGGTKLTVL
notes: DVD-Ig, outer AB063 / inner AB075
Kd (Recombinant Human IGF1R): 0.047 nM
koff (Recombinant Human IGF1R): 2.3e-06 s⁻¹
kon (Recombinant Human IGF1R): 49000 M⁻¹ s⁻¹

B3: DVD2336 (bispecific antibody)
VH: QVQLQESGPGLVKPSEILSLTCTVSGGSISSHYWSWVRQPPGKGLEWIGYIYYSGSTNYNPSLKSRVTISVDTSKNQFSLNLSSVTAADTAVYYCARIPNYYDRSGYYPGYWYFDLWGRGTLVTVSSASTKGPEVQLVQSGGGLVKPGGSLRLSCAASGFTFSSFAMHWVRQAPGKGLEWISVIDTRGATYYADSVKGRFTISRDNAKNSLYLQMNSLRAEDTAVYYCARLGNFYYGMDVWGQGTTVTVSS
VL: QAVLTQPSSLSAPPGASASLTCTLRSGFNVDSYRISWYQQKPGSPPQYLLRYKSDSDKQQGSGVPSRFSGSKDASANAGILLISGLQSEDEADYYCMIWHSSAWVFGGGTKLTVLRQPKAAPEIVLTQSPGTLSVSPGERATLSCRASQSIGSSLHWYQQKPGQAPRLLIKYASQSLSGIPDRFSGSGSGTDFTLTISRLEPEDFAVYYCHQSSRLPHTFGQGTKVEIK
notes: DVD-Ig, outer AB034 / inner AB077
binding result (Recombinant Human IGF1R): no binding (tested: 10-200 nM)
Kd [1]: 40 nM

B4: DVD2307 (bispecific antibody)
VH: EVQLVQSGGGLVKPGGSLRLSCAASGFTFSSFAMHWVRQAPGKGLEWISVIDTRGATYYADSVKGRFTISRDNAKNSLYLQMNSLRAEDTAVYYCARLGNFYYGMDVWGQGTTVTVSSASTKGPEVQLVESGGGLVQPGGSLRLSCAASGFSLTNYGVHWVRQAPGKGLEWLGVGWSGGNTDYNTPFTSRLTINKDNSKNTVYLQMNSLRAEDTAVYYCARALTWYDYEFAYWGQGTLVTVSS
VL: EIVLTQSPGTLSVSPGERATLSCRASQSIGSSLHWYQQKPGQAPRLLIKYASQSLSGIPDRFSGSGSGTDFTLTISRLEPEDFAVYYCHQSSRLPHTFGQGTKVEIKRTVAAPDILLTQSPGTLSLSPGERATLSCRASQSIYTNIHWYQQKPGQAPRLLIKYASESISGIPDRFSGSGSGTDFTLTISRLEPEDFAVYYCQQNLNWPTTFGQGTKLEIK
notes: DVD-Ig, outer AB077 / inner AB400
GEO MEAN (EGFR on the cell surface [2]): 266

B6: DVD2326 (bispecific antibody)
VH: EVQLVQSGGGLVKPGGSLRLSCAASGFTFSSYAMHWVRQAPGKGLEWVAVISYDGSNKYYADSVKGRFTISRDNSKNTLYLQMNSLRAEDTAVYYCARFSGWPNNYYYYGMDVWGQGTTVTVSSASTKGPEVQLLESGGGLVQPGGSLRLSCTASGFTFSSYAMNWVRQAPGKGLEWVSAISGSGGTTFYADSVKGRFTISRDNSRTTLYLQMNSLRAEDTAVYYCAKDLGWSDSYYYYYGMDVWGQGTTVTVSS
VL: DVVMTQSPLSLPVTPGEPASISCRSSQSLLHSNGFNYVDWYLQKPGQSPHLLIYFGSYRASGVPDRFSGSGSGTDFTLKISRVEAEDVGVYYCMQALQTPPWTFGQGTKVEIRRTVAAPDIQMTQFPSSLSASVGDRVTITCRASQGIRNDLGWYQQKPGKAPKRLIYAASRLHRGVPSRFSGSGSGTEFTLTISSLQPEDFATYYCLQHNSYPCSFGQGTKLEIK
notes: DVD-Ig, outer AB005 / inner AB011
binding result (Recombinant Human IGF1R): no binding (tested: 10-200 nM)
Kd [1]: 21 nM
koff [1]: 0.00091 s⁻¹

B7: DVD2283 (bispecific antibody)
VH: QVQLQQWGAGLLKPSETLSLTCAVYGGSFSGYYWSWIRQPPGKGLEWIGEINHSGSTNYNPSLKSRVTISVETSKNQFSLKLSSVTAADTAVYYCARDKWTWYFDLWGRGTLVTVSSASTKGPEVQLVQSGAEVKKPGSSVKVSCKASGGTFSSYAISWVRQAPGQGLEWMGGIIPIFGTANYAQKFQGRVTITADKSTSTAYMELSSLRSEDTAVYYCARAPLRFLEWSTQDHYYYYYMDVWGKGTTVTVSS
VL: DIEMTQSPDSLAVSLGERATINCRSSQSVLYSSSNRNYLAWYQQNPGQPPKLLIYWASTRESGVPDRFSGSGSGTDFTLTISSLQAEDVAVYYCQQYYSTPRTFGQGTKVEIKRTVAAPSSELTQDPAVSVALGQTVRITCQGDSLRSYYATWYQQKPGQAPILVIYGENKRPSGIPDRFSGSSSGNTASLTITGAQAEDEADYYCKSRDGSGQHLVFGGGTKLTVL
notes: DVD-Ig, outer AB062 / inner AB075
Kd (Recombinant Human IGF1R): 5 nM
koff (Recombinant Human IGF1R): 0.00012 s⁻¹
kon (Recombinant Human IGF1R): 25000 M⁻¹ s⁻¹

B8: DVD2338 (bispecific antibody)
VH: QVQLQESGPGLVKPSEILSLTCTVSGGSISSHYWSWVRQPPGKGLEWIGYIYYSGSTNYNPSLKSRVTISVDTSKNQFSLNLSSVTAADTAVYYCARIPNYYDRSGYYPGYWYFDLWGRGTLVTVSSASTKGPEVQLVESGGGLVQPGGSLRLSCAASGFSLTNYGVHWVRQAPGKGLEWLGVGWSGGNTDYNTPFTSRLTINKDNSKNTVYLQMNSLRAEDTAVYYCARALTWYDYEFAYWGQGTLVTVSS
VL: QAVLTQPSSLSAPPGASASLTCTLRSGFNVDSYRISWYQQKPGSPPQYLLRYKSDSDKQQGSGVPSRFSGSKDASANAGILLISGLQSEDEADYYCMIWHSSAWVFGGGTKLTVLRQPKAAPDILLTQSPGTLSLSPGERATLSCRASQSIYTNIHWYQQKPGQAPRLLIKYASESISGIPDRFSGSGSGTDFTLTISRLEPEDFAVYYCQQNLNWPTTFGQGTKLEIK
notes: DVD-Ig, outer AB034 / inner AB400
GEO MEAN (EGFR on the cell surface [2]): 252

B9: DVD2291 (bispecific antibody)
VH: QVQLQESGPGLVKPSETLSLTCTVSGGSVSSGDYYWTWIRQSPGKGLEWIGHIYYSGNTNYNPSLKSRLTISIDTSKTQFSLKLSSVTAADTAIYYCVRDRVTGAFDIWGQGTMVTVSSASTKGPEVQLVESGGGLVQPGGSLRLSCAASGFSLTNYGVHWVRQAPGKGLEWLGVGWSGGNTDYNTPFTSRLTINKDNSKNTVYLQMNSLRAEDTAVYYCARALTWYDYEFAYWGQGTLVTVSS
VL: DIQMTQSPSSLSASVGDRVTITCQASQDISNYLNWYQQKPGKAPKLLIYDASNLETGVPSRFSGSGSGTDFTFTISSLQPEDIATYFCQHFDHLPLAFGGGTKVEIKRTVAAPDILLTQSPGTLSLSPGERATLSCRASQSIYTNIHWYQQKPGQAPRLLIKYASESISGIPDRFSGSGSGTDFTLTISRLEPEDFAVYYCQQNLNWPTTFGQGTKLEIK
GEO MEAN (EGFR on the cell surface [3]): 541
GEO MEAN (EGFR on the cell surface [2]): 541

B11: DVD2343 (bispecific antibody)
VH: EVQLVESGGGLVQPGGSLRLSCAASGFTFTDYTMDWVRQAPGKGLEWVADVNPNSGGSIYNQRFKGRFTLSVDRSKNTLYLQMNSLRAEDTAVYYCARNLGPSFYFDYWGQGTLVTVSSASTKGPQVQLQESGPGLVKPSQTLSLTCTVSGYSISSDFAWNWIRQPPGKGLEWMGYISYSGNTRYQPSLKSRITISRDTSKNQFFLKLNSVTAADTATYYCVTAGRGFPYWGQGTLVTVSS
VL: DIQMTQSPSSLSASVGDRVTITCKASQDVSIGVAWYQQKPGKAPKLLIYSASYRYTGVPSRFSGSGSGTDFTLTISSLQPEDFATYYCQQYYIYPYTFGQGTKVEIKRTVAAPDIQMTQSPSSMSVSVGDRVTITCHSSQDINSNIGWLQQKPGKSFKGLIYHGTNLDDGVPSRFSGSGSGTDYTLTISSLQPEDFATYYCVQYAQFPWTFGGGTKLEIK
GEO MEAN (EGFR on the cell surface [2]): 6.47
